Conditions: Bos taurus; pH 7; 25 °C; Urea; CD; Potassium phosphate 10 mM; whole UniProt chain shown

B1: Protein S100-G wild type, P02633 (protein)
chain: MSAKKSPEELKGIFEKYAAKEGDPNQLSKEELKLLLQTEFPSLLKGPSTLDELFEELDKNGDGEVSFEEFQVLVKKISQ
  denaturant m value: 1.17 kcal/mol/M
  denaturant midpoint (higher = more stable): 5.6 M
  unfolding free energy: 6.55 kcal/mol

Source: FireProtDB (doi:10.1021/bi972642d)
